Our source for the CRE-luc reporter, HEK293T cells with the receptor: EC50 and CRE-luc reporter, HEK293T cells with the receptor: Emax (fold induction) values is PMC3679108, “A Novel Glucagon-Related Peptide (GCRP) and Its Receptor GCRPR Account for Coevolution of Their Family Members in Vertebrates” (PLoS ONE, 2013).

One experiment has as its target human GIPR (human) (UniProt P48546).
The target in experiment [1] is Xenopus GCRP receptor (Xenopus).
The target of experiment [2] is chicken GCRP receptor (chicken).

Chain of Human GLP1 (peptide) (peptide): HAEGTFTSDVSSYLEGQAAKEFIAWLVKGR
Chain of Human GCG (peptide) (peptide): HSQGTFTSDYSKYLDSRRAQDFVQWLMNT
Chain of human GIPR (human) (P48546 22-466): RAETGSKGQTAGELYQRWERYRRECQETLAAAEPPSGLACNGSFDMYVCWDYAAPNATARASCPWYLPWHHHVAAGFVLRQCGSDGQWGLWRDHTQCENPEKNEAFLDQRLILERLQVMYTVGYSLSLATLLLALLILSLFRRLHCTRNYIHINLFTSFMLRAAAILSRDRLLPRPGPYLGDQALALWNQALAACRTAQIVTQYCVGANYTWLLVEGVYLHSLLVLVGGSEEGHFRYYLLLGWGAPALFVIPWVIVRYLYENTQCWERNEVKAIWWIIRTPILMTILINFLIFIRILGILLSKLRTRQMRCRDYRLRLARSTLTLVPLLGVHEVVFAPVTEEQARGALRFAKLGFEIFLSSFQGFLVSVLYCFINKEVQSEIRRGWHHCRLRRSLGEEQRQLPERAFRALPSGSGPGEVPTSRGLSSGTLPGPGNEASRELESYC

In turn, Exendin-4 (peptide) gave a CRE-luc reporter, HEK293T cells with the receptor: EC50 in the experiment with human GIPR (human) of 100 nM.

Consider Human GCG (peptide), for which, in experiment [1], the CRE-luc reporter, HEK293T cells with the receptor: EC50 turned out to be 49.4 nM and the CRE-luc reporter, HEK293T cells with the receptor: Emax (fold induction) is 32.7. In experiment [2], the CRE-luc reporter, HEK293T cells with the receptor: EC50 was found to be 35.3 nM and the CRE-luc reporter, HEK293T cells with the receptor: Emax (fold induction) was 6.3.

On to Human GLP1 (peptide), for which the CRE-luc reporter, HEK293T cells with the receptor: EC50 in experiment [1] was 391 nM; in experiment [2] it was 120 nM. Moreover, the CRE-luc reporter, HEK293T cells with the receptor: Emax (fold induction) in experiment [1] came out at 35; in experiment [2], 6.24.
